The term Kd denotes the equilibrium constant for the complex coming apart. The low end stands for higher affinity, the high end for lower affinity.

The target of this assay is human CD3 (huCD3ed) (human) (UniProt P07766). The assay can be described thus: Biacore SPR, antibody as ligand, hCD3ed 80 nM-0.64 nM, kinetic fit. A general note: In SPR one partner is held on a chip, and binding of the other changes the refractive index at the surface.
Sequence of human CD3 (huCD3ed) (human) (P07766 23-126, chain 1 of 2): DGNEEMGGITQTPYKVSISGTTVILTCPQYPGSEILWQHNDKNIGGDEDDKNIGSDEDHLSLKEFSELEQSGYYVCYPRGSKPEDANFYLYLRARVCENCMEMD
Sequence of human CD3 (huCD3ed) (human) (P04234 22-105, chain 2 of 2, further chain): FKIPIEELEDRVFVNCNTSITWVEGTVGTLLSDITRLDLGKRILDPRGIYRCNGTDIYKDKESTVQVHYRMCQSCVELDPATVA

The substance SP34 (antibody) showed a Kd of 10.7 nM and a t1/2 of 3.8 min.

(Values after patent US20240018252A1.)
